# Tested on: FMC63
# Assay: CD19 variant binding to anti-CD19 antibody FMC63 (score)
# Details: Table 1B, CD19 triple mutants
# FMC63, sequence (as listed by the source): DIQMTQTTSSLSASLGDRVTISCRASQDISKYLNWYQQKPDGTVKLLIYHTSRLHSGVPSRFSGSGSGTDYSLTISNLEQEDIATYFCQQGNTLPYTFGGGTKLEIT
# FMC63, sequence (as listed by the source): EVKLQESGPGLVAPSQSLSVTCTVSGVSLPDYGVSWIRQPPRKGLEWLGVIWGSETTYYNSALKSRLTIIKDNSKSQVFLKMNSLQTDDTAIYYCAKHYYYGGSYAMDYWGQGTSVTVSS
row,Molecule,FMC63 Binding Score
1,E224G/G226A/L228T: CD19 variant (protein) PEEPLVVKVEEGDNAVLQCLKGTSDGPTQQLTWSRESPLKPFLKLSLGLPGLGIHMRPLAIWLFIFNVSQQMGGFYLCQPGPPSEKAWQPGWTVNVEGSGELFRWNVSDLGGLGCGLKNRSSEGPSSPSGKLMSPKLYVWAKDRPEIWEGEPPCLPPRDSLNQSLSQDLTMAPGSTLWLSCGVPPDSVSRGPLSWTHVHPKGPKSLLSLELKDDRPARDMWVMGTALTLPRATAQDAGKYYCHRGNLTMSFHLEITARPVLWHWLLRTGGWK,12.7 ± 2.4
2,E224G/G226V/L228V: CD19 variant (protein) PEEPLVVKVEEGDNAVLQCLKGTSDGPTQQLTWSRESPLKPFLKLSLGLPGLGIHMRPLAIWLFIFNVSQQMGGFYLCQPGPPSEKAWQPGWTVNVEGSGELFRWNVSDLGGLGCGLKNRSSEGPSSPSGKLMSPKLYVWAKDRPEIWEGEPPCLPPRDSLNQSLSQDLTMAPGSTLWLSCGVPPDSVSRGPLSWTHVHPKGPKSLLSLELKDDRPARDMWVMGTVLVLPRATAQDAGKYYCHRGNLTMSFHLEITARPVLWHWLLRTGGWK,11.2 ± 1.
3,E224G/G226S/L228V: CD19 variant (protein) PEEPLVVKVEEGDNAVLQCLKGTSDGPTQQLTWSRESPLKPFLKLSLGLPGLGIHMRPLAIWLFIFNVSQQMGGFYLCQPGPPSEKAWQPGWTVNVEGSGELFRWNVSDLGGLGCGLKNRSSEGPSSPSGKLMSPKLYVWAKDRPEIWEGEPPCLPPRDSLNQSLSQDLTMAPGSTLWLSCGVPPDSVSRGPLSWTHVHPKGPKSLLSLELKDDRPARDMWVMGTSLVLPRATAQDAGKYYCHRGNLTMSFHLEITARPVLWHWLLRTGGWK,11.2 ± 1.1
4,W62H/F64F/F66R: CD19 variant (protein) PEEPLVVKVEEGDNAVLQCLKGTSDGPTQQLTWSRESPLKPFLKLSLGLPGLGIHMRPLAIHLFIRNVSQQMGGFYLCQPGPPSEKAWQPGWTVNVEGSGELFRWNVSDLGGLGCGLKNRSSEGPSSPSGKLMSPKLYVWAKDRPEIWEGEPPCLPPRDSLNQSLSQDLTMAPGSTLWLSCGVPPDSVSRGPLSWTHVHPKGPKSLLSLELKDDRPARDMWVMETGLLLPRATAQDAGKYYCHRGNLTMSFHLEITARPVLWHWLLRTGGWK,12.4 ± 2.3
5,L59N/I61I/L63I: CD19 variant (protein) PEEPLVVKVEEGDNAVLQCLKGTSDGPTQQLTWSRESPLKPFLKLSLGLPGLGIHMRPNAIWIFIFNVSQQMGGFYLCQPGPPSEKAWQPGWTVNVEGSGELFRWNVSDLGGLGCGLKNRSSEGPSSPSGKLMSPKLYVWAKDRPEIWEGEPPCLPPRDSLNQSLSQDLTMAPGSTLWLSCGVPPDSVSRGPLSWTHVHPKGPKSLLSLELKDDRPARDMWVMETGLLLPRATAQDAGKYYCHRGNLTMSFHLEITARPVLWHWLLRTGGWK,15.6 ± 5.6
6,E224G/G226R/L228V: CD19 variant (protein) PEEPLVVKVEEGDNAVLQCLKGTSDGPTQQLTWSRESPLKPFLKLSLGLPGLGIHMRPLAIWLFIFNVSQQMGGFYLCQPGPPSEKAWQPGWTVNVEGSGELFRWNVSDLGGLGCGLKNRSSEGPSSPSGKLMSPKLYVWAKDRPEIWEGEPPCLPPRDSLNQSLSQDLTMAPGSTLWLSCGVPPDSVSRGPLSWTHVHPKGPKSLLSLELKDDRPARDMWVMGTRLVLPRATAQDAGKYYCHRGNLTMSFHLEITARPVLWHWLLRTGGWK,11. ± .9
7,W62H/F64V/F66S: CD19 variant (protein) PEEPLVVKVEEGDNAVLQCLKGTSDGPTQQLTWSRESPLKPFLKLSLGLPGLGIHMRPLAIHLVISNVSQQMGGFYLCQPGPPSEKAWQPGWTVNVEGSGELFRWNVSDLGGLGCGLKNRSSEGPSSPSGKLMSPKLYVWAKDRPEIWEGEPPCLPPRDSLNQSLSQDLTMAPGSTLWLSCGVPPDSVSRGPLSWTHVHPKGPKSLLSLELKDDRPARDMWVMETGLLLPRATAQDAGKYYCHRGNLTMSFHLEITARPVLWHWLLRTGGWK,14. ± 4.
8,W62T/F64M/F66S: CD19 variant (protein) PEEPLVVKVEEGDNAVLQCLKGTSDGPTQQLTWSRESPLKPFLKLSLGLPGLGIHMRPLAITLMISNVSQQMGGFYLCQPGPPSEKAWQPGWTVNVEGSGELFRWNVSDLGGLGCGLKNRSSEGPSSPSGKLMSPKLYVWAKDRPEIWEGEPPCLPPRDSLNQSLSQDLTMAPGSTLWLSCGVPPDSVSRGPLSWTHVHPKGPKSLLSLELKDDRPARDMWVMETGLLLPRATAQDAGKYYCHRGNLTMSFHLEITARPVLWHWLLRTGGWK,15.7 ± 5.6
9,W62S/F64V/F66A: CD19 variant (protein) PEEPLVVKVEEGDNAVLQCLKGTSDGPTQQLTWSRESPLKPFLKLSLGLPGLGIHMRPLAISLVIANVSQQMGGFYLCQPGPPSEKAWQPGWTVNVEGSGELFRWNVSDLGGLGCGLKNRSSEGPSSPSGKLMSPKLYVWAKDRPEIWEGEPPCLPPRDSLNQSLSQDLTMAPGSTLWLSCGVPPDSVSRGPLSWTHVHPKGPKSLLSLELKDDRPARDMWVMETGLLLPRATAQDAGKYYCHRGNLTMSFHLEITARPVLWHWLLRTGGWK,13.5 ± 3.2
10,W62S/F64V/F66R: CD19 variant (protein) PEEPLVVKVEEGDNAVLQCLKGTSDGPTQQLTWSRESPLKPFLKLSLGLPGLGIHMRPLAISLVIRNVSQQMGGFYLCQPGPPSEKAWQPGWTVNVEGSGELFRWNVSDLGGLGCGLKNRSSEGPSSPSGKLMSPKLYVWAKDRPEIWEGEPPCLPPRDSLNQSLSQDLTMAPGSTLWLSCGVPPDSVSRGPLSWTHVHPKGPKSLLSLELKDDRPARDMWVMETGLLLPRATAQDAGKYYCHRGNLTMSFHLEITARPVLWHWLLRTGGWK,11.8 ± 1.7
11,E224G/G226A/L228V: CD19 variant (protein) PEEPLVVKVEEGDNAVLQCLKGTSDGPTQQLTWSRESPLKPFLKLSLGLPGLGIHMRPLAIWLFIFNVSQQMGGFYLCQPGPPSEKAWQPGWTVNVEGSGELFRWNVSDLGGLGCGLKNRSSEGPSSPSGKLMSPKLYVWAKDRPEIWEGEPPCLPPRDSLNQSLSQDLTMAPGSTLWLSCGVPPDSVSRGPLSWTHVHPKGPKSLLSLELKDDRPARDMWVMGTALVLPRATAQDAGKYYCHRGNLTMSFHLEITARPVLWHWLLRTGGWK,10.8 ± .8
12,W62T/F64V/F66R: CD19 variant (protein) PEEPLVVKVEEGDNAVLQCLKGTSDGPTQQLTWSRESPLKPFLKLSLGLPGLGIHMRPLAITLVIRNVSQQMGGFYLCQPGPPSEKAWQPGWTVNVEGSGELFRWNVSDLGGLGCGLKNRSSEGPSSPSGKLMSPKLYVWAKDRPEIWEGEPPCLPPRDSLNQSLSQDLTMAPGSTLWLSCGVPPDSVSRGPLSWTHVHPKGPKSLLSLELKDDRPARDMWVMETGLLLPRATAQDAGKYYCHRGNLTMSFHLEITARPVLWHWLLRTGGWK,12.2 ± 2.1
13,W62T/F64A/F66S: CD19 variant (protein) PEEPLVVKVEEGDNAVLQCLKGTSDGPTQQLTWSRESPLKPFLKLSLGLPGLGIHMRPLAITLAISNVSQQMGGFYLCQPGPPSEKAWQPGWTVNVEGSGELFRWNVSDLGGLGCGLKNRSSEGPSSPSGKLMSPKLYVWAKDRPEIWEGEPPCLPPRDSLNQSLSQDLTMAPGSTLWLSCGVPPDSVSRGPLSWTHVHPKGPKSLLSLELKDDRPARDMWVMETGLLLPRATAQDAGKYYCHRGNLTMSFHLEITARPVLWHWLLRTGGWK,15.7 ± 5.6
14,W62N/F64L/F66P: CD19 variant (protein) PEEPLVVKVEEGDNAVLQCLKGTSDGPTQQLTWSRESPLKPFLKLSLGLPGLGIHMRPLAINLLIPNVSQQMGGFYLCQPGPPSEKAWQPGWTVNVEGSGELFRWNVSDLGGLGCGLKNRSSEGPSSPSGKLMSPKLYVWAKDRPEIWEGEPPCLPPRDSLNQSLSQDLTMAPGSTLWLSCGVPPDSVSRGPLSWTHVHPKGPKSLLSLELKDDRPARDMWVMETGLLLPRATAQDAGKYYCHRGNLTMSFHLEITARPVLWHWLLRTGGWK,15.6 ± 5.6
15,W62D/F64V/F66S: CD19 variant (protein) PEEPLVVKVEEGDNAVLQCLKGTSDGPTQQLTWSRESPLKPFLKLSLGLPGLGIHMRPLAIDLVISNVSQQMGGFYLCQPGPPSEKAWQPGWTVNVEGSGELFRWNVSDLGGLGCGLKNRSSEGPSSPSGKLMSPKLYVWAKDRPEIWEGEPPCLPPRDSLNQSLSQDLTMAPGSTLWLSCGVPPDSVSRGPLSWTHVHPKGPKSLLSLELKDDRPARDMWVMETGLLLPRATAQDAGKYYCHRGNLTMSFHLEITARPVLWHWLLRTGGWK,13.3 ± 3.2
16,E224G/G226G/L228I: CD19 variant (protein) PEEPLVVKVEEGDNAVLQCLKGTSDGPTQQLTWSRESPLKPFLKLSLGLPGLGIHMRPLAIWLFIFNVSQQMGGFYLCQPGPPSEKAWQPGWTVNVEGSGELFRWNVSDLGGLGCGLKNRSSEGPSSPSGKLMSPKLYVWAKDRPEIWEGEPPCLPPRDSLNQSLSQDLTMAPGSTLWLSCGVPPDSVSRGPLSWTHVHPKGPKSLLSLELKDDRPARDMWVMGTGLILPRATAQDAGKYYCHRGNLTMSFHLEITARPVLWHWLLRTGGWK,11.2 ± 1.2
17,W62S/F64F/F66N: CD19 variant (protein) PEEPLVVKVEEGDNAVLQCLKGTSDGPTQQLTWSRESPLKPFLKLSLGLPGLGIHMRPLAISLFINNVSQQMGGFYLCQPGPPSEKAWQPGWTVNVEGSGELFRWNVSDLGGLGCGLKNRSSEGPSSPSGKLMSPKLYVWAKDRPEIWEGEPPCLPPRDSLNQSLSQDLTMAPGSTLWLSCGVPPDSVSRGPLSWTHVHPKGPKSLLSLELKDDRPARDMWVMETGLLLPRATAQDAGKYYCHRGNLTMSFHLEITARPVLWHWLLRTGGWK,15.6 ± 5.6

# — patent US20220387487A1, “COMPOSITIONS AND METHODS FOR TREATMENT OF CANCER” (Aleta Biotherapeutics Inc., priority 2019, published 2022)
